Among the data in article doi:10.1101/553636 are Kd values, retold here.

The assay concerns the target BD-Barstar D35A. The experiment in a line: two-hybrid.

Consider AD-Barnase H102A (enzyme), for which the Kd lay within 11 to 122 nM.
